# In the supplement of paper PMC12338614:
# ± gives the uncertainty stated by the source.
# B1: library; numbered along this chain (parent)
# chain: MEVVDPQQLGMFTEGELMSVGMDTFIHRIDSTEVIYQPRRKRAKLIGKYLMGDLLGEGSYGKVKEVLDSETLCRRAVKILKKKKLRRIPNGEANVKKEIQLLRRLRHKNVIQLVDVLYNEEKQKMYMVMEYCVCGMQEMLDSVPEKRFPVCQAHGYFCQLIDGLEYLHSQGIVHKDIKPGNLLLTTGGTLKISDLGVAEALHPFAADDTCRTSQGSPAFQPPEIANGLDTFSGFKVDIWSAGVTLYNITTGLYPFEGDNIYKLFENIGKGSYAIPGDCGPPLSDLLKGMLEYEPAKRFSIRQIRQHSWFRKKHPPAEAPVPIPPSPDTKDRWRSMTVVPYLEDLHGADEDEDLFDIEDDIIYTQDFTVPGQVPEEEASHNGQRRGLPKAVCMNGTEAAQLSTKSRAEGRAPNPARKACSASSKIRRLSACKQQ
# Variants of: B1
# Experiment: STK11 functional score (HeLa growth suppression), rescaled enrichment; synonymous median = 1, nonsense median = 0 (normalised score)
# Settings: with HeLa; variant type: missense
# Method in brief: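 The values are functional scores: wild-type-corrected log ratios of post- versus pre-selection abundance, rescaled to synonymous and nonsense medians, merged over codons and replicate transfections, and carrying bootstrapped error. They derive from codon-randomised (POPCode), codon-optimised STK11 libraries that Bxb1 integrated at an AAVS1 landing pad in HeLa, with three transfections for each of three regions. Sequencing of tiled gDNA amplicons ran on NextSeq, at ~2 million reads per tile.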
row,Variant,STK11 functional score
1,R297A,0.147 ± 0.078
2,R297D,0.0713 ± 0.079
3,R297C,-0.195 ± 0.096
4,L290Q,-0.237 ± 0.2
5,L290G,0.0144 ± 0.1
6,L290M,0.891 ± 0.12
7,L290A,0.0427 ± 0.076
8,L290C,1.06 ± 0.3
9,L290D,-0.275 ± 0.15
10,L290T,1.07 ± 0.45
11,L290Y,-0.205 ± 0.067
12,L290I,1.06 ± 0.21
13,L290P,0.264 ± 0.16
14,L290N,-0.076 ± 0.064
15,L290F,0.664 ± 0.42
16,L290W,0.691 ± 0.1
17,L290S,0.0143 ± 0.1
18,L290R,-0.22 ± 0.065
19,L290E,-0.387 ± 0.062
20,L290V,0.625 ± 0.089
21,L290H,-0.09 ± 0.07
22,Y292P,1.38 ± 0.19
23,Y292V,0.931 ± 0.12
24,Y292T,1.68 ± 0.3

row,Variant,STK11 functional score
1,Y292L,0.546 ± 0.15
2,Y292A,1.15 ± 0.26
3,Y292I,1.09 ± 0.13
4,Y292W,0.686 ± 0.12
5,Y292M,1.64 ± 0.31
6,Y292D,1.09 ± 0.67
7,Y292G,1.45 ± 0.21
8,Y292S,1.28 ± 0.23
9,Y292R,1.22 ± 0.21
10,Y292F,0.991 ± 0.22
11,Y292C,0.438 ± 0.15
12,Y292E,1.52 ± 0.22
13,G279S,1.25 ± 0.12
14,G279W,1.06 ± 0.077
15,G279N,1.57 ± 0.16
16,G279V,0.88 ± 0.32
17,G279F,1.27 ± 0.17
18,G279I,1.41 ± 0.4
19,G279P,1.17 ± 0.33
20,G279Q,1.32 ± 0.16
21,G279R,0.829 ± 0.35
22,G279C,0.657 ± 0.1
23,G279Y,1.43 ± 0.33
24,G279A,0.991 ± 0.39

row,Variant,STK11 functional score
1,G279E,0.538 ± 0.088
2,G279H,1.6 ± 0.31
3,G279T,1.57 ± 0.21
4,G279L,1.41 ± 0.29
5,G279M,0.984 ± 0.61
6,K296N,1.12 ± 0.44
7,K296M,1.32 ± 0.89
8,E293N,1.55 ± 0.23
9,E293G,0.451 ± 0.27
10,E293I,1.16 ± 0.096
11,E293M,0.995 ± 0.14
12,E293A,1.03 ± 0.15
13,E293W,1.07 ± 0.23
14,E293T,1.3 ± 0.31
15,E293L,0.882 ± 0.13
16,E293D,1.43 ± 0.47
17,E293P,0.842 ± 0.41
18,E293V,1.02 ± 0.18
19,E293S,1.08 ± 0.25
20,E293Q,1.23 ± 0.55
21,E293H,1 ± 0.28
22,E293R,0.395 ± 0.12
23,E293F,1.07 ± 0.11
24,P281D,1.45 ± 0.3

row,Variant,STK11 functional score
1,P281V,1.19 ± 0.14
2,P281R,0.969 ± 0.13
3,P281T,1.46 ± 0.22
4,P281N,1.66 ± 0.19
5,P281S,0.965 ± 0.17
6,P281E,1.3 ± 0.46
7,P281F,1.23 ± 0.2
8,P281Y,1.38 ± 0.23
9,P281A,0.84 ± 0.1
10,P281G,0.787 ± 0.18
11,P281C,0.746 ± 0.32
12,P281K,1.26 ± 0.79
13,P281L,1.18 ± 0.11
14,P281Q,1.51 ± 0.31
15,P281I,1.46 ± 0.18
16,P281W,0.551 ± 0.072
17,P281M,1.31 ± 0.21
18,M289F,-0.0683 ± 0.074
19,M289A,0.107 ± 0.21
20,M289V,0.966 ± 0.44
21,M289C,0.75 ± 0.1
22,M289R,-0.101 ± 0.11
23,M289E,-0.103 ± 0.1
24,M289Q,0.0869 ± 0.082

row,Variant,STK11 functional score
1,M289D,0.312 ± 0.18
2,M289S,-0.188 ± 0.1
3,M289W,-0.296 ± 0.059
4,M289P,-0.379 ± 0.11
5,M289G,-0.0773 ± 0.11
6,M289Y,-0.218 ± 0.07
7,M289L,0.831 ± 0.11
8,L282I,0.764 ± 0.1
9,L282V,0.86 ± 0.23
10,L282H,0.737 ± 0.71
11,L282F,1.21 ± 0.33
12,L282S,0.442 ± 0.08
13,L282P,0.541 ± 0.13
14,L282W,0.522 ± 0.086
15,L282K,0.565 ± 0.1
16,L282T,0.466 ± 0.16
17,L282D,1.26 ± 0.5
18,L282M,0.225 ± 0.27
19,L282Y,1.07 ± 0.17
20,L282A,0.846 ± 0.18
21,L282R,0.128 ± 0.1
22,L282G,0.43 ± 0.11
23,G276T,1.16 ± 0.21
24,G276E,1.57 ± 0.32

row,Variant,STK11 functional score
1,G276S,1.42 ± 0.27
2,G276A,1.41 ± 0.14
3,G276D,1.33 ± 0.75
4,G276C,1.2 ± 0.65
5,G276L,1.11 ± 0.21
6,G276P,1.22 ± 0.22
7,G276I,0.493 ± 0.26
8,G276R,1.35 ± 0.18
9,G276V,1.05 ± 0.19
10,G276F,0.884 ± 0.19
11,G276W,1.36 ± 0.15
12,P280G,1.46 ± 0.23
13,P280M,1.04 ± 0.38
14,P280D,1.45 ± 0.44
15,P280E,1.69 ± 0.21
16,P280N,1.63 ± 0.21
17,P280Q,1.36 ± 0.4
18,P280A,0.896 ± 0.17
19,P280R,1.14 ± 0.17
20,P280S,1.16 ± 0.34
21,P280I,1.36 ± 0.34
22,P280T,1.53 ± 0.25
23,P280F,1 ± 0.18
24,P280V,1.41 ± 0.096

row,Variant,STK11 functional score
1,P280L,1.32 ± 0.19
2,P280W,0.665 ± 0.16
3,P280K,1.67 ± 0.19
4,P280H,1.17 ± 0.16
5,E291P,0.178 ± 0.095
6,E291G,0.922 ± 0.22
7,E291W,1.35 ± 0.12
8,E291I,1.22 ± 0.56
9,E291T,1.15 ± 0.44
10,E291H,1.17 ± 0.2
11,E291D,1.03 ± 0.35
12,E291F,0.825 ± 0.25
13,E291M,1.66 ± 0.17
14,E291V,1.28 ± 0.14
15,E291Q,1.36 ± 0.41
16,E291K,1.28 ± 0.62
17,E291C,1.24 ± 0.24
18,E291A,1.47 ± 0.44
19,E291N,0.978 ± 0.52
20,E291L,0.796 ± 0.14
21,E291R,1.53 ± 0.18
22,E291S,1.38 ± 0.14
23,D284M,1.19 ± 0.42
